# Results published in the supplement of paper PMC6379048.
# Key:
# Assay in all cases: EC50 of free RNA motif oligo competing protein binding to immobilised probe
# ZGPAT = molecular target: T1, ZGPAT (UniProt Q8N5A5)
# T1 sequence: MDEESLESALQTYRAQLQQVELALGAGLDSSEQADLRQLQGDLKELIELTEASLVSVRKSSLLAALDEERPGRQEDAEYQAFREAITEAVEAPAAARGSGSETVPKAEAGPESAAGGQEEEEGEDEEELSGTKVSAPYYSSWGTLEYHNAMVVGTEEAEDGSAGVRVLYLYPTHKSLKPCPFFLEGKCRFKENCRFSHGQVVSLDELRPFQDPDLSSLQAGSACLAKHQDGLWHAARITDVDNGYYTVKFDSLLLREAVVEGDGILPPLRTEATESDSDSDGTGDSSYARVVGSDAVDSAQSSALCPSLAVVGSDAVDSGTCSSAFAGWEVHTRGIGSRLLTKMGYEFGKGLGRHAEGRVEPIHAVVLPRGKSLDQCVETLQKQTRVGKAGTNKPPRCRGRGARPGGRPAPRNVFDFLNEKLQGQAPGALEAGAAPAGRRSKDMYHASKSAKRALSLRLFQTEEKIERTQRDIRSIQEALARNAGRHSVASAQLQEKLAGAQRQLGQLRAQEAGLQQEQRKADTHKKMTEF
# Method in brief: (§1)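 HEK293-FT lysate (2.5 mg protein/well) was treated with free RNA oligos (0 nM to 30 μM) for 1 h at 4°C, then with the same oligos on NHS-Sepharose beads for 30 min at 4°C. Bound proteins were quantified by label-free LC-MS/MS relative to the control. EC50 came from a four-parameter log-logistic fit, and Kd is EC50 times a protein-dependent depletion factor.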
# PTBP3 = PTBP3 (UniProt O95758)
# Sequence of PTBP3 (O95758 whole entry): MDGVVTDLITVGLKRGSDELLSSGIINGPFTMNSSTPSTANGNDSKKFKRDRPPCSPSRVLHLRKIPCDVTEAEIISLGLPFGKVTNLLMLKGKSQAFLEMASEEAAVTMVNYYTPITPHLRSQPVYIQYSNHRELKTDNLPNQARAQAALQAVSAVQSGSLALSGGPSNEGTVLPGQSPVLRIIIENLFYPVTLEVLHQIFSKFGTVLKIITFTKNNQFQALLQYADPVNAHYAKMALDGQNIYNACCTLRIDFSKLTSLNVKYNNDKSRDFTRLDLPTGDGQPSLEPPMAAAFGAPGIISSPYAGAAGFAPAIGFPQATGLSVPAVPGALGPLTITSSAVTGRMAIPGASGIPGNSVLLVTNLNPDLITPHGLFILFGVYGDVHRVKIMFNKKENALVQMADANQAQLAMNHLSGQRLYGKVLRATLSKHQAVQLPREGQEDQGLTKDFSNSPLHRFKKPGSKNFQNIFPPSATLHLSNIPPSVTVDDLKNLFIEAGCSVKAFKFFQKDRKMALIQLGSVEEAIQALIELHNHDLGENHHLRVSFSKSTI
# Method in brief: as §1
# P4HA2 = P4HA2 (UniProt O15460)
# Sequence of P4HA2 (O15460 whole entry): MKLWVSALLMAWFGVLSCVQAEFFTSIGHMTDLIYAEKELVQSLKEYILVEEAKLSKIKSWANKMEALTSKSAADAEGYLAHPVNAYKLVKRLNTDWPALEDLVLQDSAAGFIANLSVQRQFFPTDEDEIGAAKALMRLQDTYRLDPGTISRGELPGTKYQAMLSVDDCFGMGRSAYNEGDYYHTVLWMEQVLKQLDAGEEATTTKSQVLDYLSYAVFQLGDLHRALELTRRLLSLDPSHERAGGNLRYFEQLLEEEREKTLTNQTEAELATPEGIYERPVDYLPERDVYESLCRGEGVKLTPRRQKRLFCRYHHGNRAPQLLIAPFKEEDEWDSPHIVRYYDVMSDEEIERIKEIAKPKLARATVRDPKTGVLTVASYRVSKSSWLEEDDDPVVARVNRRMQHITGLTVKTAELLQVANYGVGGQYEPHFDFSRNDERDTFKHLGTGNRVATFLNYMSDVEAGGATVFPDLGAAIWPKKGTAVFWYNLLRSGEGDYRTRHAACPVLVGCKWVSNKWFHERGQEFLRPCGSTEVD
# Method in brief: as §1
# TUBB4B = TUBB4B (UniProt P68371)
# Sequence of TUBB4B (P68371 whole entry): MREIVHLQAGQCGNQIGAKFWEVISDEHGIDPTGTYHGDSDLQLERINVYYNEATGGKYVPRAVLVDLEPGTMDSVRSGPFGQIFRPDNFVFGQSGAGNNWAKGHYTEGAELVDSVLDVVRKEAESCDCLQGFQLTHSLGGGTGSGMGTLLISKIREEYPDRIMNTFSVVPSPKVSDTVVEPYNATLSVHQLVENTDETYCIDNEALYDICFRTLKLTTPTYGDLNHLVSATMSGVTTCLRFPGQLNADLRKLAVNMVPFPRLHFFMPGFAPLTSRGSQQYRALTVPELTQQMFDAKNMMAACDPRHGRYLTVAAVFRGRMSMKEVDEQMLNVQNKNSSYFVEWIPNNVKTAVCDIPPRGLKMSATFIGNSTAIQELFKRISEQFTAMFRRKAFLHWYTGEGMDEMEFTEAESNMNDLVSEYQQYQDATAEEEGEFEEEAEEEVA
# Method in brief: as §1
# ICT1 = ICT1 (UniProt Q14197)
# Method in brief: as §1
# MRPL14 = MRPL14 (UniProt Q6P1L8)
# Method in brief: as §1
# ANGEL2 = molecular target: T2, ANGEL2 (UniProt Q5VTE6)
# T2 sequence: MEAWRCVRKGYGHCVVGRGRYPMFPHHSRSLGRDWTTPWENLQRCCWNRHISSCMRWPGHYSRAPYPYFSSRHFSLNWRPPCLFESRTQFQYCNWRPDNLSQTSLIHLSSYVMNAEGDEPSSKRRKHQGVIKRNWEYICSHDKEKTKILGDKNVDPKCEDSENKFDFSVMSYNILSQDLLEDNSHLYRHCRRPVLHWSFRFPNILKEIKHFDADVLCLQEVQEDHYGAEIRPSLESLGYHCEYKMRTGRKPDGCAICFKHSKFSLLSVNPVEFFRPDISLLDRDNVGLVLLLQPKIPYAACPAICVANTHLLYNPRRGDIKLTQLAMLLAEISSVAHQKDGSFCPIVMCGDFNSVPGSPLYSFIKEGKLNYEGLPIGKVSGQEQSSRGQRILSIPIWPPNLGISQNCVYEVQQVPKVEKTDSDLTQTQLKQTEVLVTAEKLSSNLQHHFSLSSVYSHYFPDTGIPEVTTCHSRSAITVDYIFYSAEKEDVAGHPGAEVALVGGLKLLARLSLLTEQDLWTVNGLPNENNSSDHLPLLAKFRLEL
# Method in brief: as §1
# RPSA = RPSA (UniProt P08865)
# Method in brief: as §1
# PLOD1 = molecular target: T3, PLOD1 (UniProt Q02809)
# T3 sequence: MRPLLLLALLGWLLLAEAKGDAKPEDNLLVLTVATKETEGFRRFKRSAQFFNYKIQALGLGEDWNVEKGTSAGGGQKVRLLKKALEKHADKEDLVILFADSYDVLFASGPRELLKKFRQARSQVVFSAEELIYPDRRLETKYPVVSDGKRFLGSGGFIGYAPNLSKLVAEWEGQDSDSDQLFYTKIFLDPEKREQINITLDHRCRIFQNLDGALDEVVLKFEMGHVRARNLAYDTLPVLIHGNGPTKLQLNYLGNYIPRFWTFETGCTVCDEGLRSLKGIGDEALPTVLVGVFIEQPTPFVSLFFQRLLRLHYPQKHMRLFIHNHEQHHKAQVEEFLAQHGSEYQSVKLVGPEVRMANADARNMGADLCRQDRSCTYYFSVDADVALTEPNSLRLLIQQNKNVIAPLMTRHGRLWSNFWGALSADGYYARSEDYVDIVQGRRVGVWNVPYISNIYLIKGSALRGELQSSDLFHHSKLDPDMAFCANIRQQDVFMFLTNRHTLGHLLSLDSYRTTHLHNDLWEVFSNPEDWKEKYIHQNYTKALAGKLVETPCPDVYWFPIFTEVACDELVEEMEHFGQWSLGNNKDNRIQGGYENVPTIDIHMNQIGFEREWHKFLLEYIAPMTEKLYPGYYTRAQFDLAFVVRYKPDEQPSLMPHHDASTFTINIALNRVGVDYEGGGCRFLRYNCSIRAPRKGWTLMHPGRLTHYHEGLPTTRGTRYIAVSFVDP
# Method in brief: as §1
# SKIV2L = SKIV2L (UniProt Q15477)
# Sequence of SKIV2L (Q15477 whole entry): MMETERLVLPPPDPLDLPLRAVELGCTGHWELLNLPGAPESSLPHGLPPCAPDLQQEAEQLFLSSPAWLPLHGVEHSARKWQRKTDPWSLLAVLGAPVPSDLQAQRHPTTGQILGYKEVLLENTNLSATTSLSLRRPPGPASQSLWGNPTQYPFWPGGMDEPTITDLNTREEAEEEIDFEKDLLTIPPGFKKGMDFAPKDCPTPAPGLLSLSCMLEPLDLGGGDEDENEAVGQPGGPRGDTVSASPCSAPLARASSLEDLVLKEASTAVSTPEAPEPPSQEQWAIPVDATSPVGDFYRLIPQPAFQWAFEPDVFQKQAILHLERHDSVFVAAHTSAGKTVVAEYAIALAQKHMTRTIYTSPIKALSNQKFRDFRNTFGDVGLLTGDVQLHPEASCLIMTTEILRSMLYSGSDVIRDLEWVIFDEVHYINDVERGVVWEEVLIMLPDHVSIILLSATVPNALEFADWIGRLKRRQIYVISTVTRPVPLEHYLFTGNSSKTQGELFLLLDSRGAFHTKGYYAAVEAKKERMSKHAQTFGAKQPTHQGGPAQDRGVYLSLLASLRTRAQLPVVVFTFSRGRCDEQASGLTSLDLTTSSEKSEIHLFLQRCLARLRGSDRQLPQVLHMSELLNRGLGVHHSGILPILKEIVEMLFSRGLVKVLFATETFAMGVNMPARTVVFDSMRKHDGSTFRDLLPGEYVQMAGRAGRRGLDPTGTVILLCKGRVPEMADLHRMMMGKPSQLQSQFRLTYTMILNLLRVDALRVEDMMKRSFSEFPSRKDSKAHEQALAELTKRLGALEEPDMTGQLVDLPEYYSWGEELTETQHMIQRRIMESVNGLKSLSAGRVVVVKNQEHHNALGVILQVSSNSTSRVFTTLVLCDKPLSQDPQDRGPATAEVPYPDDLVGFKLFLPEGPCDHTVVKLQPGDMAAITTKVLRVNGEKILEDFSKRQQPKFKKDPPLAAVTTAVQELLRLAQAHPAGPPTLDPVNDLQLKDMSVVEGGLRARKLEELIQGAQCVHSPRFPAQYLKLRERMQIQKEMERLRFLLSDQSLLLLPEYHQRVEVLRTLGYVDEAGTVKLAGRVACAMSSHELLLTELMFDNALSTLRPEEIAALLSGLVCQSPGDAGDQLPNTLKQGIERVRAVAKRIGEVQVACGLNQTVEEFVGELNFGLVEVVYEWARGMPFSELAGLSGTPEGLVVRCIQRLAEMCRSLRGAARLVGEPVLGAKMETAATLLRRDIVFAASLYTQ
# Method in brief: as §1
# MRPS23 = MRPS23 (UniProt Q9Y3D9)
# Method in brief: as §1
sequence,measurement,setting,value
AAUAAA,EC50,ZGPAT,9600 nM
same,EC50,PTBP3,6990 nM
same,EC50,P4HA2,38.9 nM
same,EC50,TUBB4B,1410 nM
CUGUCCU,EC50,ICT1,125 nM
same,EC50,MRPL14,104 nM
same,EC50,ANGEL2,504 nM
same,EC50,RPSA,491 nM
UAUUUAU,EC50,PLOD1,6720 nM
same,EC50,SKIV2L,1950 nM
same,EC50,MRPS23,40 nM
